# Source: patent US20240123070A1 (SHANGHAI GENBASE BIOTECHNOLOGY, published 2024)
# Molecular target: KRAS G13D antigen (G13D-RT6, SEQ ID NO: 20) loaded on Lovo-DPA0301:DPB0501 cells (human)
# Assay: cell-based or functional assay
row,Binder,TCR Mut RLU/WT RLU [ratio]
1,"B8.2.4 TCR mutant β95Q-Y (TCR, V domains shown) V domain 1: AQKITQTQPGMFVQEKEAVTLDCTYDTSDPSYGLFWYKQPSSGEMIFLIYQGSYDQQNATEGRYSLNFQKARKSANLVISASQLGDSAMYFCAMRERTGTASKLTFGTGTRLQVTL V domain 2: DVKVTQSSRYLVKRTGEKVFLECVQDMDHENMFWYRQDPGLGLRLIYFSYDVKMKEKGDIPEGYSVSREKKERFSLILESASTNQTSMYLCASSYTVPPQHFGDGTRLSILE",0.92
2,"B8.2.4 TCR mutant β96T-K (TCR, V domains shown) V domain 1: AQKITQTQPGMFVQEKEAVTLDCTYDTSDPSYGLFWYKQPSSGEMIFLIYQGSYDQQNATEGRYSLNFQKARKSANLVISASQLGDSAMYFCAMRERTGTASKLTFGTGTRLQVTL V domain 2: DVKVTQSSRYLVKRTGEKVFLECVQDMDHENMFWYRQDPGLGLRLIYFSYDVKMKEKGDIPEGYSVSREKKERFSLILESASTNQTSMYLCASSQKVPPQHFGDGTRLSILE",0.84
3,"B8.2.4 TCR mutant β96T-A (TCR, V domains shown) V domain 1: AQKITQTQPGMFVQEKEAVTLDCTYDTSDPSYGLFWYKQPSSGEMIFLIYQGSYDQQNATEGRYSLNFQKARKSANLVISASQLGDSAMYFCAMRERTGTASKLTFGTGTRLQVTL V domain 2: DVKVTQSSRYLVKRTGEKVFLECVQDMDHENMFWYRQDPGLGLRLIYFSYDVKMKEKGDIPEGYSVSREKKERFSLILESASTNQTSMYLCASSQAVPPQHFGDGTRLSILE",0.77
4,"B8.2.4 TCR mutant β96T-M (TCR, V domains shown) V domain 1: AQKITQTQPGMFVQEKEAVTLDCTYDTSDPSYGLFWYKQPSSGEMIFLIYQGSYDQQNATEGRYSLNFQKARKSANLVISASQLGDSAMYFCAMRERTGTASKLTFGTGTRLQVTL V domain 2: DVKVTQSSRYLVKRTGEKVFLECVQDMDHENMFWYRQDPGLGLRLIYFSYDVKMKEKGDIPEGYSVSREKKERFSLILESASTNQTSMYLCASSQMVPPQHFGDGTRLSILE",0.35
5,"B8.2.4 TCR mutant β96T-F (TCR, V domains shown) V domain 1: AQKITQTQPGMFVQEKEAVTLDCTYDTSDPSYGLFWYKQPSSGEMIFLIYQGSYDQQNATEGRYSLNFQKARKSANLVISASQLGDSAMYFCAMRERTGTASKLTFGTGTRLQVTL V domain 2: DVKVTQSSRYLVKRTGEKVFLECVQDMDHENMFWYRQDPGLGLRLIYFSYDVKMKEKGDIPEGYSVSREKKERFSLILESASTNQTSMYLCASSQFVPPQHFGDGTRLSILE",0.42
6,"B8.2.4 TCR mutant β96T-R (TCR, V domains shown) V domain 1: AQKITQTQPGMFVQEKEAVTLDCTYDTSDPSYGLFWYKQPSSGEMIFLIYQGSYDQQNATEGRYSLNFQKARKSANLVISASQLGDSAMYFCAMRERTGTASKLTFGTGTRLQVTL V domain 2: DVKVTQSSRYLVKRTGEKVFLECVQDMDHENMFWYRQDPGLGLRLIYFSYDVKMKEKGDIPEGYSVSREKKERFSLILESASTNQTSMYLCASSQRVPPQHFGDGTRLSILE",0.49
7,"B8.2.4 TCR mutant β96T-Y (TCR, V domains shown) V domain 1: AQKITQTQPGMFVQEKEAVTLDCTYDTSDPSYGLFWYKQPSSGEMIFLIYQGSYDQQNATEGRYSLNFQKARKSANLVISASQLGDSAMYFCAMRERTGTASKLTFGTGTRLQVTL V domain 2: DVKVTQSSRYLVKRTGEKVFLECVQDMDHENMFWYRQDPGLGLRLIYFSYDVKMKEKGDIPEGYSVSREKKERFSLILESASTNQTSMYLCASSQYVPPQHFGDGTRLSILE",0.4
8,"B8.2.4 TCR mutant β97V-A (TCR, V domains shown) V domain 1: AQKITQTQPGMFVQEKEAVTLDCTYDTSDPSYGLFWYKQPSSGEMIFLIYQGSYDQQNATEGRYSLNFQKARKSANLVISASQLGDSAMYFCAMRERTGTASKLTFGTGTRLQVTL V domain 2: DVKVTQSSRYLVKRTGEKVFLECVQDMDHENMFWYRQDPGLGLRLIYFSYDVKMKEKGDIPEGYSVSREKKERFSLILESASTNQTSMYLCASSQTAPPQHFGDGTRLSILE",0.56
9,"B8.2.4 TCR mutant β96T-H (TCR, V domains shown) V domain 1: AQKITQTQPGMFVQEKEAVTLDCTYDTSDPSYGLFWYKQPSSGEMIFLIYQGSYDQQNATEGRYSLNFQKARKSANLVISASQLGDSAMYFCAMRERTGTASKLTFGTGTRLQVTL V domain 2: DVKVTQSSRYLVKRTGEKVFLECVQDMDHENMFWYRQDPGLGLRLIYFSYDVKMKEKGDIPEGYSVSREKKERFSLILESASTNQTSMYLCASSQHVPPQHFGDGTRLSILE",0.82
10,"B8.2.4 TCR mutant β96T-N (TCR, V domains shown) V domain 1: AQKITQTQPGMFVQEKEAVTLDCTYDTSDPSYGLFWYKQPSSGEMIFLIYQGSYDQQNATEGRYSLNFQKARKSANLVISASQLGDSAMYFCAMRERTGTASKLTFGTGTRLQVTL V domain 2: DVKVTQSSRYLVKRTGEKVFLECVQDMDHENMFWYRQDPGLGLRLIYFSYDVKMKEKGDIPEGYSVSREKKERFSLILESASTNQTSMYLCASSQNVPPQHFGDGTRLSILE",0.82
11,"B8.2.4 TCR mutant β96T-P (TCR, V domains shown) V domain 1: AQKITQTQPGMFVQEKEAVTLDCTYDTSDPSYGLFWYKQPSSGEMIFLIYQGSYDQQNATEGRYSLNFQKARKSANLVISASQLGDSAMYFCAMRERTGTASKLTFGTGTRLQVTL V domain 2: DVKVTQSSRYLVKRTGEKVFLECVQDMDHENMFWYRQDPGLGLRLIYFSYDVKMKEKGDIPEGYSVSREKKERFSLILESASTNQTSMYLCASSQPVPPQHFGDGTRLSILE",0.39
12,"B8.2.4 TCR mutant β96T-C (TCR, V domains shown) V domain 1: AQKITQTQPGMFVQEKEAVTLDCTYDTSDPSYGLFWYKQPSSGEMIFLIYQGSYDQQNATEGRYSLNFQKARKSANLVISASQLGDSAMYFCAMRERTGTASKLTFGTGTRLQVTL V domain 2: DVKVTQSSRYLVKRTGEKVFLECVQDMDHENMFWYRQDPGLGLRLIYFSYDVKMKEKGDIPEGYSVSREKKERFSLILESASTNQTSMYLCASSQCVPPQHFGDGTRLSILE",0.78
13,"B8.2.4 TCR mutant β96T-I (TCR, V domains shown) V domain 1: AQKITQTQPGMFVQEKEAVTLDCTYDTSDPSYGLFWYKQPSSGEMIFLIYQGSYDQQNATEGRYSLNFQKARKSANLVISASQLGDSAMYFCAMRERTGTASKLTFGTGTRLQVTL V domain 2: DVKVTQSSRYLVKRTGEKVFLECVQDMDHENMFWYRQDPGLGLRLIYFSYDVKMKEKGDIPEGYSVSREKKERFSLILESASTNQTSMYLCASSQIVPPQHFGDGTRLSILE",0.41
14,"B8.2.4 TCR mutant β96T-D (TCR, V domains shown) V domain 1: AQKITQTQPGMFVQEKEAVTLDCTYDTSDPSYGLFWYKQPSSGEMIFLIYQGSYDQQNATEGRYSLNFQKARKSANLVISASQLGDSAMYFCAMRERTGTASKLTFGTGTRLQVTL V domain 2: DVKVTQSSRYLVKRTGEKVFLECVQDMDHENMFWYRQDPGLGLRLIYFSYDVKMKEKGDIPEGYSVSREKKERFSLILESASTNQTSMYLCASSQDVPPQHFGDGTRLSILE",0.28
15,"B8.2.4 TCR mutant β96T-L (TCR, V domains shown) V domain 1: AQKITQTQPGMFVQEKEAVTLDCTYDTSDPSYGLFWYKQPSSGEMIFLIYQGSYDQQNATEGRYSLNFQKARKSANLVISASQLGDSAMYFCAMRERTGTASKLTFGTGTRLQVTL V domain 2: DVKVTQSSRYLVKRTGEKVFLECVQDMDHENMFWYRQDPGLGLRLIYFSYDVKMKEKGDIPEGYSVSREKKERFSLILESASTNQTSMYLCASSQLVPPQHFGDGTRLSILE",0.31
16,"B8.2.4 TCR mutant β97V-C (TCR, V domains shown) V domain 1: AQKITQTQPGMFVQEKEAVTLDCTYDTSDPSYGLFWYKQPSSGEMIFLIYQGSYDQQNATEGRYSLNFQKARKSANLVISASQLGDSAMYFCAMRERTGTASKLTFGTGTRLQVTL V domain 2: DVKVTQSSRYLVKRTGEKVFLECVQDMDHENMFWYRQDPGLGLRLIYFSYDVKMKEKGDIPEGYSVSREKKERFSLILESASTNQTSMYLCASSQTCPPQHFGDGTRLSILE",0.37
17,"B8.2.4 TCR mutant β96T-G (TCR, V domains shown) V domain 1: AQKITQTQPGMFVQEKEAVTLDCTYDTSDPSYGLFWYKQPSSGEMIFLIYQGSYDQQNATEGRYSLNFQKARKSANLVISASQLGDSAMYFCAMRERTGTASKLTFGTGTRLQVTL V domain 2: DVKVTQSSRYLVKRTGEKVFLECVQDMDHENMFWYRQDPGLGLRLIYFSYDVKMKEKGDIPEGYSVSREKKERFSLILESASTNQTSMYLCASSQGVPPQHFGDGTRLSILE",0.05
18,"B8.2.4 TCR mutant β96T-E (TCR, V domains shown) V domain 1: AQKITQTQPGMFVQEKEAVTLDCTYDTSDPSYGLFWYKQPSSGEMIFLIYQGSYDQQNATEGRYSLNFQKARKSANLVISASQLGDSAMYFCAMRERTGTASKLTFGTGTRLQVTL V domain 2: DVKVTQSSRYLVKRTGEKVFLECVQDMDHENMFWYRQDPGLGLRLIYFSYDVKMKEKGDIPEGYSVSREKKERFSLILESASTNQTSMYLCASSQEVPPQHFGDGTRLSILE",0.06
19,"B8.2.4 TCR mutant β96T-W (TCR, V domains shown) V domain 1: AQKITQTQPGMFVQEKEAVTLDCTYDTSDPSYGLFWYKQPSSGEMIFLIYQGSYDQQNATEGRYSLNFQKARKSANLVISASQLGDSAMYFCAMRERTGTASKLTFGTGTRLQVTL V domain 2: DVKVTQSSRYLVKRTGEKVFLECVQDMDHENMFWYRQDPGLGLRLIYFSYDVKMKEKGDIPEGYSVSREKKERFSLILESASTNQTSMYLCASSQWVPPQHFGDGTRLSILE",0.64
20,"B8.2.4 TCR mutant β96T-V (TCR, V domains shown) V domain 1: AQKITQTQPGMFVQEKEAVTLDCTYDTSDPSYGLFWYKQPSSGEMIFLIYQGSYDQQNATEGRYSLNFQKARKSANLVISASQLGDSAMYFCAMRERTGTASKLTFGTGTRLQVTL V domain 2: DVKVTQSSRYLVKRTGEKVFLECVQDMDHENMFWYRQDPGLGLRLIYFSYDVKMKEKGDIPEGYSVSREKKERFSLILESASTNQTSMYLCASSQVVPPQHFGDGTRLSILE",0.97
21,"B8.2.4 TCR mutant β96T-Q (TCR, V domains shown) V domain 1: AQKITQTQPGMFVQEKEAVTLDCTYDTSDPSYGLFWYKQPSSGEMIFLIYQGSYDQQNATEGRYSLNFQKARKSANLVISASQLGDSAMYFCAMRERTGTASKLTFGTGTRLQVTL V domain 2: DVKVTQSSRYLVKRTGEKVFLECVQDMDHENMFWYRQDPGLGLRLIYFSYDVKMKEKGDIPEGYSVSREKKERFSLILESASTNQTSMYLCASSQQVPPQHFGDGTRLSILE",0.57
22,"B8.2.4 TCR mutant β96T-S (TCR, V domains shown) V domain 1: AQKITQTQPGMFVQEKEAVTLDCTYDTSDPSYGLFWYKQPSSGEMIFLIYQGSYDQQNATEGRYSLNFQKARKSANLVISASQLGDSAMYFCAMRERTGTASKLTFGTGTRLQVTL V domain 2: DVKVTQSSRYLVKRTGEKVFLECVQDMDHENMFWYRQDPGLGLRLIYFSYDVKMKEKGDIPEGYSVSREKKERFSLILESASTNQTSMYLCASSQSVPPQHFGDGTRLSILE",0.8
